Data reported in patent publication US20220362394A1 (SUTRO BIOPHARMA, published 2022).

T1: human BCMA-Fc (human, UniProt Q02223 1-54)
T1 construct: Bought from R&D Systems; also called huBCMA-Fc; not shown: Fc part not described
T1 sequence: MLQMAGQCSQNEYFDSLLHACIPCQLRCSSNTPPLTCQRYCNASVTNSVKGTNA

T2: human BCMA on cells (human, UniProt Q02223 1-184)
T2 construct: also called hBCMA; BCMA on NCI-H929, ARP-1, OPM-2, U266B1, MM.1S, RPMI-8226 cells
T2 sequence: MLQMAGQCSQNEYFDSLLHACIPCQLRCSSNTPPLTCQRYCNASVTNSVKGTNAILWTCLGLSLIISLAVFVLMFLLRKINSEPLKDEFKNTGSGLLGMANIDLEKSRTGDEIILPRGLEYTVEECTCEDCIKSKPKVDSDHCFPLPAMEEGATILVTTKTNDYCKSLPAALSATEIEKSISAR


Legend:
[1] = target: T1, human BCMA-Fc; experiment: SPR Biacore, antibody captured, 25 C
Protocol: (§1) Anti-Fab or anti-Fc polyclonal antibodies were immobilized onto a CM5 chip (GE Life Sciences) using amine coupling chemistry (from Amine Coupling Kit, GE Life Sciences). The immobilization steps were carried out at a flow rate of 25 μL/min in 1×HBS-EP+ buffer (GE Life Sciences; 10× Stock diluted before use). The sensor surfaces were activated for 7 min with a mixture of NHS (0.05 M) and EDC (0.2 M). The anti-Fab or anti-Fc antibodies were injected over all 4 flow cells at a concentration of 25 μg/ml in 10 mM sodium acetate, pH 4.5, for 7 min. Ethanolamine (1 M, pH 8.5) was injected for 7 min to block any remaining activated groups.
(§2) Off-rate and kinetic binding experiments were performed at 25° C. using 1×HBS-EP+ buffer. […] After capturing ligand (antibody) on the anti-Fab or anti-Fc surface, the analyte (human BCMA-Fc, cyno BCMA-Fc, or human BCMA from R&D Systems, custom protein production, or Sigma Aldrich, respectively) was bound for 180 seconds, followed by a 600 second dissociation phase at a flow rate of 50 μL/min. Between each ligand capture and analyte binding cycle, regeneration was carried out using 2 injections of 10 mM glycine pH 2.0 for 30 seconds at 30 μL/min, followed by a 30 second buffer wash step.
(§3) The data was fit with the Biacore T200 Evaluation software, using a 1-1 Langmuir binding model. KD (affinity, nM) was determined as a ratio of the kinetic rate constants calculated from the fits of the association and dissociation phases.

[2] = target: cynomolgus BCMA on cells (cynomolgus monkey, UniProt Q02223 1-184 (human entry)); experiment: FACS, 293T-cynoBCMA cells
cynomolgus BCMA on cells, sequence (Q02223 other isoform, or with tags, fused parts or gaps): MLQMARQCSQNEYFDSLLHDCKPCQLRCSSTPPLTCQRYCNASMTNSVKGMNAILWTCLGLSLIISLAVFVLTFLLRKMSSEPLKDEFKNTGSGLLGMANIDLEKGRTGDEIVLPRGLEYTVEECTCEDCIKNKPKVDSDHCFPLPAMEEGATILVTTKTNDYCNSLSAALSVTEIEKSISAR
Protocol: (§4) Variants for which sufficient protein was purified in secondary screening were tested in a fluorescence-activated cell sorting (FACS) cell-binding assay. […] 6-12 point dilutions of anti-BCMA variants starting from concentrations of about 100-200 nM antibody were dispensed into each well using a BioMekFX (Beckman Coulter). Cells were then incubated on ice for 1 hr, washed with FACS buffer and incubated for 1 hr on ice with […] FACS buffer containing 2.5 μg/ml Alexa647-conjugated Goat Anti-Human IgG dispensed using BioMekFX (Beckman Coulter). Cells were then washed 2× with FACS buffer and fixed for 10 minutes in […] PBS with 2% paraformaldehyde (PFA) prior to fluorescence detection. Samples were acquired using a Beckton Dickinson LSRII FACS. Geometric Mean Fluorescence Intensity of BCMA antibody binding was analyzed using FlowJo® software (Tree Star, Inc.).

[3] = target: T2, human BCMA on cells; experiment: FACS, NCI-H929 cells
Protocol: as §4

[4] = target: T3, cyno BCMA-Fc (cynomolgus monkey, UniProt Q02223 1-54 (human entry)); experiment: SPR Biacore, antibody captured, 25 C
T3 construct: Custom protein production; also called cynomolgus BCMA-Fc; not shown: Fc part not described
Protocol: as §1, §2, §3

| Binder | Kd [1] [nM] | koff [1] [s⁻¹] | kon [1] [M⁻¹ s⁻¹] | Bmax [2] [MFI] | Kd [2] [nM] | Bmax [3] [MFI] | Kd [3] [nM] | Kd [4] [nM] | koff [4] [s⁻¹] | kon [4] [M⁻¹ s⁻¹] |
| --- | --- | --- | --- | --- | --- | --- | --- | --- | --- | --- |
| 2137-C07 (antibody, V domains shown, IgG1 with His/FLAG tag, cell-free expressed, trastuzumab LC; also called Antibody 1) VH: EVQLVESGGGLVQPGGSLRLSCAASGFNISGSGIHWVRQAPGKGLEWVGFINPAGGYTDYADSVKGRFTISADTSKNTAYLQMNSLRAEDTAVYYCARDYVYQYWTYVLDYWGQGTLVTVSS VL: not shown | 1.63 | 0.000745 | 457000 | 18500 | 10.1 | – | – | – | – | – |
| 2265-F02 (antibody, V domains shown, also called Antibody 4; Antibody 2265-F02) VH: EVQLVESGGGLVQPGGSLRLSCAASGFNISAPGIHWVRQAPGKGLEWVGFINPAGGYTDYADSVKGRFTISADTSKNTAYLQMNSLRAEDTAVYYCARDYIRQYWTYVLDYWGQGTLVTVSS VL: not shown | 0.499 | 0.000293 | 587000 | 23800 | 6.2 | 11700 | 5.2 | 3.68 | 0.00116 | 315000 |
| 2265-D05 (antibody, V domains shown, also called Antibody 10) VH: EVQLVESGGGLVQPGGSLRLSCAASGFNISGPGIHWVRQAPGKGLEWVGFINPAAGYTDYADSVKGRFAISADTSKNTAYLQMNSLRAEDTAVYYCARDFVYAYWTYVLDYWGQGTLVTVSS VL: not shown | 0.702 | 0.000485 | 691000 | 21900 | 2.5 | 9620 | 4.4 | 4.53 | 0.00147 | 325000 |
| 2265-B06 (antibody, V domains shown, also called Antibody 5) VH: EVQLVESGGGLVQPGGSLRLSCAASGFNIRVSGIHWVRQAPGKGLEWVGFINPAGGYTDYADSVKGRFTISADTSKNTAYLQMNSLRAEDTAVYYCARDYVQAYWTYVLDYWGQGTLVTVSS VL: not shown | 0.546 | 0.000385 | 705000 | 26700 | 5.1 | 11600 | 4.5 | 3.67 | 0.0013 | 354000 |
| 2265-A06 (antibody, V domains shown, also called Antibody 13) VH: EVQLVESGGGLVQPGGSLRLSCAASGFNIYRSGIHWVRQAPGKGLEWVGFINPAGGYTDYADSVKGRFTISADTSKNTAYLQMNSLRAEDTAVYYCARDYVPQYWTYVLDYWGQGTLVTVSS VL: not shown | 0.789 | 0.000392 | 497000 | 22100 | 3.8 | 11100 | 5.7 | 6.24 | 0.00156 | 249000 |
| 2265-C02 (antibody, V domains shown, also called Antibody 12) VH: EVQLVESGGGLVQPGGSLRLSCAASGFNIGVSGIHWVRQAPGKGLEWVGFINPAGGYTDYAGSVKGRFTISADTSKNTAYLQMNSLRAEDTAVYYCARDYIYSYWTYVLDYWGQGTLVTVSS VL: not shown | 0.758 | 0.000567 | 747000 | 24100 | 4.9 | 11500 | 4.4 | 4.22 | 0.00137 | 325000 |
| 2265-F03 (antibody, V domains shown, also called Antibody 7) VH: EVQLVESGGGLVQPGGSLRLSCAASGFNIRGPGIHWVRQAPGKGLEWVGFISPAAGYTDYADSVKGRFTISADTSKNTAYLQMNSLRAEDTAVYYCARDFVQSYWTYVLDYWGQGTLVTVSS VL: not shown | 0.633 | 0.000474 | 749000 | 17400 | 2.5 | 11200 | 4.3 | 7.9 | 0.00274 | 346000 |
| 2265-F06 (antibody, V domains shown, also called Antibody 2) VH: EVQLVESGGGLVQPGGSLRLSCAASGFNISYPGIHWVRQAPGKGLEWVGFINPAGGYTDYADSVKGRFTISADTSKNTAYLQMNSLRAEDTAVYYCARDYILQYWTYVLDYWGQGTLVTVSS VL: not shown | 0.276 | 0.000193 | 699000 | 25800 | 3.4 | 11400 | 4.5 | 3.84 | 0.00133 | 347000 |
| 2265-E02 (antibody, V domains shown, also called Antibody 8) VH: EVQLVESGGGLVQPGGSLRLSCAASGFNIYVSGIHWVRQAPGKGLEWVGFINPAGGYTDYADSVKGRFTISADTSKNTAYLQTNSLRAEDTAVYYCARDYVYQYWTYVLDYWGQGTLVTVSS VL: not shown | 0.67 | 0.000383 | 571000 | 21800 | 5 | 12200 | 4.5 | 5.75 | 0.00153 | 266000 |
| 2265-C03 (antibody, V domains shown, also called Antibody 11) VH: EVQLVESGGGLVQPGGSLRLSCAAPGFNISVPGIHWVRQAPGKGLEWVGFINPAGGYTDYADSVKGRFTISADTSKNTAYLQMNSLRAEDTAVYYCARDYVPQYWTYVLDYWGQGTLVTVSS VL: not shown | 0.724 | 0.000425 | 587000 | – | – | 12500 | 5.3 | 5.83 | 0.00177 | 304000 |
| 2265-A09 (antibody, V domains shown, also called Antibody 6) VH: EVQLVESGGGLVQPGGSLRLSCAASGFNIIGPGIHWVRQAPGKGLEWVGFINPAGGYTDYADSVKGRFTISADTSKNTAYLQMNSLRAEDTAVYYCARDYVYNYWTYVLDYWGQGTLVTVSS VL: not shown | 0.589 | 0.000318 | 539000 | 18500 | 3 | 12700 | 10.3 | 6.43 | 0.00173 | 270000 |
| 2265-D11 (antibody, V domains shown, also called Antibody 9) VH: EVQLVESGGGLVQPGGSLRLSCAASGFNISGPGIHWVRQAPGKGLEWVGFINPAAGYTDYADSVKGRFTISADTSKNTAYLQMNSLRAEDTAVYYCARDYIYQYWTYVLDYWGQGTLVTVSS VL: not shown | 0.701 | 0.000537 | 766000 | 21300 | 3.8 | 10900 | 4 | 3.24 | 0.00116 | 358000 |
| 2265-F05 (antibody, V domains shown, also called Antibody 3) VH: EVQLVESGGGLVQPGGSLRLSCAASGFNIIAPGIHWVRQAPGKGLEWVGFINPAGGYTDYADSVKGRFTISADTSKNTAYLQMNSLRAEDTAVYYCARDYVNAYWTYVLDYWGQGTLVTVSS VL: not shown | 0.469 | 0.00024 | 512000 | 26600 | 3.4 | 11900 | 6.2 | 4.39 | 0.00114 | 260000 |
| 9A8 (antibody, V domains shown, Chicken HybriFree-derived antibody; also called Antibody 30) VH: AVTLDESGGGLQTPGGTLSLVCKASGFTFSSFNMFWVRQAPGKGLEWVAYIRNDGNSASYGPAVKGRATISRDNGQSTVRLQLNNLRAEDTATYYCAKTTCIGSGGCIDTWGHGTEVIVSS VL: ALTQPSSVSANPGETVKITCSGGSSDYGWFQQKSPGSAPVTVIYSNNQRPSGIPSRFSGSKSGSTGTLTITGVQAEDEAIYYCANVDYTDDVFGAGTTLTVL | – | – | – | 17800 | 8.87 | 21100 | 33 | – | – | – |
| 10G5 (antibody, V domains shown, Chicken HybriFree-derived antibody; also called Antibody 31) VH: AVTLDESGGGLQTPGGVLSLVCKASGFTFSSFNMFWVRQAPGKGLEWVAYISNDGSSTSYGPAVKGRATISRDNGQSTVRLQLNNLRAEDTATYFCAKTTCIGSGGCIDTWGHGTEVIVSS VL: ALTQPSSVSANPGETVKITCSGGNYDYGWYQQKSPGSAPVTLIYYNNKRPSDIPSRFSGSKSGSTGTLTITGVQAEDEAIYYCANVDSTDDVFGAGTTLTVL | – | – | – | 24400 | 7.33 | 25800 | 65.8 | – | – | – |
